In test [1] the target is human Notch3 (full-length) (human) (UniProt Q9UM47). In words: FACS on Sup-T1 cells (native Notch3).
Test [2] shares this target. Nature of the test: FACS on 293T cells transiently transfected with Notch3/Hygromycin.
Test [3] deals with Notch3-EGF/Fc fusion protein (human) (UniProt Q9UM47). Nature of the test: ELISA, hybridoma supernatant on coated Notch3-EGF/Fc (0.1 ug/ml); control beside 255A-77. A general note: ELISA stands for enzyme-linked immunosorbent assay.
Test [4] has as its target T1, Notch3-LD/Fc fusion protein (human, UniProt Q9UM47 1378-1640).
T1 construct: A signal peptide was linked to the N-terminus (not identified, left out); not described; also called Notch3/Fc fusion protein
T1 sequence: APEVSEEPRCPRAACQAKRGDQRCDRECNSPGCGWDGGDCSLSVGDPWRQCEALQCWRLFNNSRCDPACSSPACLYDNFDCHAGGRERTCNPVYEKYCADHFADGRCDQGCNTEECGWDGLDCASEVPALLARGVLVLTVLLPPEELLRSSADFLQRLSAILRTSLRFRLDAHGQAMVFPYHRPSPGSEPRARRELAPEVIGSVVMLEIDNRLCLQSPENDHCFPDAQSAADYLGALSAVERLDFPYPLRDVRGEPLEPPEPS
Nature of the test: ELISA, hybridoma supernatant on coated Notch3-LD/Fc (0.1 ug/ml); control beside 256A-13.

For test [5], the target named is Notch3-EGF/Fc fusion protein (human) (UniProt Q9UM47). In words: ELISA, hybridoma supernatant on coated Notch3-EGF/Fc (0.1 ug/ml); control beside 255A-71.
The target of test [6] is T1, Notch3-LD/Fc fusion protein. In words: Western blot, denaturing conditions. How it is done: Western blot was performed to assess anti-Notch3 mAbs binding activity to Notch3 under denaturing condition. For this purpose, purified Notch3-EGF/Fc and Notch3-LD/Fc fusion proteins were combined with protein loading buffer (BioRad, Hercules, Calif.). Protein samples were also prepared from the transiently or stably transfected cells described in Example 1, which were harvested from culture dishes, washed once with phosphate buffered saline (PBS), resuspended in deionized water, and heated at 100° C. for 10 minutes after adding equal volume of 2× protein sample loading buffer (BioRad, Hercules, Calif.). All samples were separated by electrophoresis in a 4-15% gradient SDS-PAGE (BioRad, Hercules, Calif.). The proteins were transferred from gel to PVDF membrane (BioRad, Hercules, Calif.) and anti-Notch3 mAbs were applied to the Western blot membrane as the primary detection antibody. An HRP-conjugated secondary antibody was used for detection and the signal generated using a Supersignal Chemiluminescent Substrate (Pierce, Rockford, Ill.) as described above.

The target of test [7] is T2, Notch3-LDTM/V5 (human, UniProt Q9UM47 1378-1664, limits assumed).
T2 construct: not shown: V5 tag at the C-terminus
T2 sequence: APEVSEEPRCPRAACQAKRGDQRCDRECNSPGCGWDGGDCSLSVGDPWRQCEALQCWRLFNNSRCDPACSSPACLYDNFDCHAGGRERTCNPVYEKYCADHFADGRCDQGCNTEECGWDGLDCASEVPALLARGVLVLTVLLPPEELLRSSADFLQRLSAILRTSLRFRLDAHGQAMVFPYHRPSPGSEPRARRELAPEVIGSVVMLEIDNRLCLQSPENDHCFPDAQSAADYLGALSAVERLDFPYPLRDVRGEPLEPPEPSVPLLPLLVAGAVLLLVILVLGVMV
In words: cell-based FMAT assay on cells expressing Notch3-LDTM. How it is done: Cell-based antibody-binding was assessed using FMAT™ 8100 HTS System (Applied Biosystems, Foster City, Calif.) and protocol provided by the manufacturer with some modification. Cell lines expressing Notch3 were seeded in 96-well plates at a density of 30,000-50,000 cells per well. After 20-24 hours, anti-Notch3 mAbs and 1×PBS reaction buffer were added to the wells and incubated for one hour at 37° C. Cy-5-conjugated anti-mouse IgG antibody was added to the wells after removal of primary antibodies. The fluorescent intensity of bound antibody was measured by FMAT™ 8100 HTS System.

Notch3-EGF/Fc fusion protein (human), sequence (Q9UM47 43-1377): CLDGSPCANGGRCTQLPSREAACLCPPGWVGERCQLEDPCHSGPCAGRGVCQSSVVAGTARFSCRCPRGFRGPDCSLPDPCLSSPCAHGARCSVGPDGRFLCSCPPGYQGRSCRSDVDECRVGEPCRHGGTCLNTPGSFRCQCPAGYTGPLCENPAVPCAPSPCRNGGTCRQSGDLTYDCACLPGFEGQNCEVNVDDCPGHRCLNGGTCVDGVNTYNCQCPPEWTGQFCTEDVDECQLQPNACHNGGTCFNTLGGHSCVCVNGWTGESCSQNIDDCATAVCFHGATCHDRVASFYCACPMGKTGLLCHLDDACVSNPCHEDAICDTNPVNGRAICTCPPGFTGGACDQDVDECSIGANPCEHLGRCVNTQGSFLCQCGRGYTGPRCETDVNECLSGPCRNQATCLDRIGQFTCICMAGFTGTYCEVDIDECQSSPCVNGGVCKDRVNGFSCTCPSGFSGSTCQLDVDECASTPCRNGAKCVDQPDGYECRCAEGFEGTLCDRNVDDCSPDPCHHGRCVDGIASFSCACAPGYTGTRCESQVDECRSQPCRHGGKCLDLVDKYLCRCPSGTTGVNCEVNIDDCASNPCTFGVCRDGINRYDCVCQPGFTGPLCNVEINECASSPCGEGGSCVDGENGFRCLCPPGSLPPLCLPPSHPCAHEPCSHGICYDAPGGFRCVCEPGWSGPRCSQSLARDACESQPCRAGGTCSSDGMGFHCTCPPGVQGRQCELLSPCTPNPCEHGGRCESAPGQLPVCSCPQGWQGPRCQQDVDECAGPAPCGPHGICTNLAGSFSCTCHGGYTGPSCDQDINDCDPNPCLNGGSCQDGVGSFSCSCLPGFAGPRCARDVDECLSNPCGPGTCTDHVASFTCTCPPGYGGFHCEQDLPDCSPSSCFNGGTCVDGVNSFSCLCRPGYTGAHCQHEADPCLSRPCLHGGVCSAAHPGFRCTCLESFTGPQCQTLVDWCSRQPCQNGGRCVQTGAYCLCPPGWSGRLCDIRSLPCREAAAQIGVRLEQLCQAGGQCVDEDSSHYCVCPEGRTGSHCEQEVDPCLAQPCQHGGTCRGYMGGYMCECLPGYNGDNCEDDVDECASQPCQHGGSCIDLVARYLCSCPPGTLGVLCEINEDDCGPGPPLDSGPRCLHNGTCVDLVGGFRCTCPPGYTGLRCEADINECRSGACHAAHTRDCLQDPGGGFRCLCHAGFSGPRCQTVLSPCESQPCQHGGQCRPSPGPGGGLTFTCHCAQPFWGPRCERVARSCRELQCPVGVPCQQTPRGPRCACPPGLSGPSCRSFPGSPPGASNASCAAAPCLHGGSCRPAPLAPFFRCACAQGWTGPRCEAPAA
human Notch3 (full-length) (human), sequence (Q9UM47 40-2321 A2223V limits assumed): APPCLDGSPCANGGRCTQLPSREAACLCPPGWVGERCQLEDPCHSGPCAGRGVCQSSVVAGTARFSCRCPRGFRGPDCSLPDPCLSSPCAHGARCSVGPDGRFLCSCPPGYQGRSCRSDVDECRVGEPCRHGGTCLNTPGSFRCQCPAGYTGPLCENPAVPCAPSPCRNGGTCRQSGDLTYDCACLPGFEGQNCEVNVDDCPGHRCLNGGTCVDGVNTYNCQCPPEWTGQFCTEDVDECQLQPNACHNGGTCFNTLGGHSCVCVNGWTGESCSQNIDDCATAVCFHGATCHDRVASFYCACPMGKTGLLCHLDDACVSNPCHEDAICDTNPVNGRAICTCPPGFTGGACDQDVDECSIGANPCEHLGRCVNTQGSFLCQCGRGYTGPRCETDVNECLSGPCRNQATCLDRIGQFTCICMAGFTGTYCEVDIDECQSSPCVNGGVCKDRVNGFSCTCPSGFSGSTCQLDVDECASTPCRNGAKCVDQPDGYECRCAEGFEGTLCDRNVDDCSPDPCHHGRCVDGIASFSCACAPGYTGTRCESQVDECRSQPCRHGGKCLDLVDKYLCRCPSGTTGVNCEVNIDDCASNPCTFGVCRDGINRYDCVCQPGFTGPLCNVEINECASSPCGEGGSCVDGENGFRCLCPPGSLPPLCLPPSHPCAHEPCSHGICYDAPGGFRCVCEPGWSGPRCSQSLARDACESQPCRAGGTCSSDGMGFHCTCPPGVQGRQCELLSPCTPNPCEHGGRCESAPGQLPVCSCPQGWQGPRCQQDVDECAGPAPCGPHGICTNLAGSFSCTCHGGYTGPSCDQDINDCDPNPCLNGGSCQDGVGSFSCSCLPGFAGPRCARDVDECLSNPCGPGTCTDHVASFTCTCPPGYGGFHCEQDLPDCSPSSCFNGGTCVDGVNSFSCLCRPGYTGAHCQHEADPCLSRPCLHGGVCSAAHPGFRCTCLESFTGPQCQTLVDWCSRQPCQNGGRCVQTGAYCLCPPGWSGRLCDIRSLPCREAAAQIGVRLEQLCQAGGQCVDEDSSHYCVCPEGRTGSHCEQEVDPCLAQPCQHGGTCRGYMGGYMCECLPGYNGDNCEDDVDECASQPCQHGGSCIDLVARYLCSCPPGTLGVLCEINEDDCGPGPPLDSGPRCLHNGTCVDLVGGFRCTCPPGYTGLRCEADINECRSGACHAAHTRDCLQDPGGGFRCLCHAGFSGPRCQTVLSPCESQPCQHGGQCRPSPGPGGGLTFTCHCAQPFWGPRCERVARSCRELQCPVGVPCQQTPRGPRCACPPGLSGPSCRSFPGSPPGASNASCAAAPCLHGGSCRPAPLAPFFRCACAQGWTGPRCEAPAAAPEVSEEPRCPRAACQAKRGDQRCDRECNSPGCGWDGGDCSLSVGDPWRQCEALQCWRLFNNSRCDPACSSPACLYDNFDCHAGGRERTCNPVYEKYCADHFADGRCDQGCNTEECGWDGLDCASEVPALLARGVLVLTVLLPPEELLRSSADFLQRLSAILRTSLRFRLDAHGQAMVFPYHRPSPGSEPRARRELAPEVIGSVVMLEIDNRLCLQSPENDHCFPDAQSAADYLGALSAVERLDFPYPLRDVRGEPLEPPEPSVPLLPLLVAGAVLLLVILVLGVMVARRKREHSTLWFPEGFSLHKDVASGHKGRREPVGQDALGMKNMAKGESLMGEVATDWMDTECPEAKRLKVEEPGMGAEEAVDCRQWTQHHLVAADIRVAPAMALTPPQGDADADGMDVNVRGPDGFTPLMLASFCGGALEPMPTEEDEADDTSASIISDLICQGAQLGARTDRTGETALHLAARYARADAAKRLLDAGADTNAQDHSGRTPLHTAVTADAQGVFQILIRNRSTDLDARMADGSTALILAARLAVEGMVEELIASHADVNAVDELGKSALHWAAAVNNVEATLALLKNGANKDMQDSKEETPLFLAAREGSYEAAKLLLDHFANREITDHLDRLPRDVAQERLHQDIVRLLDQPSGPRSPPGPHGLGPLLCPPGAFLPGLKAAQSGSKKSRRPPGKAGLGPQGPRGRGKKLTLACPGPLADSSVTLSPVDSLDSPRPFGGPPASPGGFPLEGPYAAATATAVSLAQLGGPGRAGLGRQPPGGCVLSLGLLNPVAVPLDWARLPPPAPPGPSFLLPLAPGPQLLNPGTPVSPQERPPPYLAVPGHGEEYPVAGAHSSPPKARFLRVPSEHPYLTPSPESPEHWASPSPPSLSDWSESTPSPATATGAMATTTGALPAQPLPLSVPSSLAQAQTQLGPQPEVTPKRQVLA

In the case of Control IgG1 (antibody), the mean fluorescence intensity in test [1] is 24.5 MFI; in test [2] it was 24.2 MFI.
In the case of “Control hybridoma supernatant (antibody)”, the results for the ELISA OD at 450 nm (mean) in test [3], in test [4] and in test [5] were 0.019 OD, 0.019 OD and 0.01 OD, respectively.

B1: anti-Notch 3 monoclonal antibody mAb 255A-71 (antibody, V domains shown)
VH: DVQLQESGPGLVKPSQSLSLTCSVTGYSITSGYYWNWIRQFPGNKLEWMGFISYDGSNNYNPSLKNRISITRDTSKNQFFLKLNSVTTEDTATFYCATLYYDYDGNYFDYWGQGTTLTVSS
VL: CDIQMTQTTSSLSASLGDRVTISCRTSQDISNYLNWYQQKPDGTVKLLIYYTSRLHSGVPSRFSGSGSGTDYSLTISNLEQEDIATYFCQQGNALPLTFGPGTKLELKR
notes: Mouse hybridoma mAb raised against Notch3-EGF/Fc
As to B1, the binding result in test [6] and in test [7] was “no binding” each time.

B2: anti-Notch 3 monoclonal antibody mAb 255A-77 (antibody, V domains shown)
VH: QVQLQQSGDDLVKPGASVKLSCKASGYTFTSYWINWIKQRPGQGLEWIGHIGPGSGSTYYNEIFKGKATLTVDTSSSTAYIQLSSLSSEDSAVYFCVLTRYFYAMDYWGQGTSVTVSS
VL: DIVMTQSPSSLAVTAGEKVTMRCKSSQSLLWSVNQNNYLSWYQQKQGQPPKLLIYGASIRESWVPDRFTGSGSGTDFTLTISNVHVEDLAVYYCQHNHGSFLPLTFGAGTKLELKR
notes: as for B1
For B2, the binding result in test [6] and in test [7] was “no binding” throughout.

The record behind these values is patent US20080131908A1 (Genentech, published 2008).
